Assay results: paper PMC10499894
“And” between values parts separate entries of the source, which are not always exact repeats. Equal entries are not always repeated.

Columns and labels:
[1] = target: RcpA_(strep), C-terminally strep-tagged RcpA (P. aeruginosa PAO1) (UniProt Q9HW96); assay: cryo-EM structure; RcpA_(strep)-TadD_(FLAG) complex co-expressed in E. coli, double pulldown (StrepTrap, ANTI-FLAG M2), 0.06% DDM; graphene oxide support and tilted collection; C13 map at 2.7 Å, focussed TadD map; on holey carbon grids TadD was stripped off
[2] = target: RcpA, endogenous in P. aeruginosa PAO1 (P. aeruginosa PAO1 (endogenous)) (UniProt Q9HW96); assay: pull-down; P. aeruginosa PAO1 with chromosomal tadD_(strep), native expression levels; membranes extracted with DDM; Strep-Tactin Sepharose; eluate seen by anti-strep Western blot and negative stain EM 2D class averages
[3] = target: _(strep)RcpA, N-terminally strep-tagged RcpA (P. aeruginosa PAO1) (UniProt Q9HW96); assay: pull-down; RcpA constructs with the strep tag at the N-terminus co-expressed with TadD in E. coli; single strep tag pulldown; SDS-PAGE, Western blot and negative stain EM 2D class averages
[4] = target: TadD, native sequence, tag not given (P. aeruginosa PAO1); assay: pull-down; cysteine mutants of RcpA and TadD co-expressed in E. coli, single strep tag pulldown; RcpA-TadD particles counted on five negative stain EM micrographs per mutant (Laplacian-of-Gaussian blob detection), SDS-PAGE
[5] = target: TadD D139C (P. aeruginosa PAO1); assay: as above

RcpA_(strep), C-terminally strep-tagged RcpA (from UniProt Q9HW96 1-416) (natural protein)
stoichiometry N [1]: 13 and 14

RcpA, endogenous in P. aeruginosa PAO1 (from UniProt Q9HW96 1-416) (natural protein)
stoichiometry N [2]: 13 and 14

_(strep)RcpA, N-terminally strep-tagged RcpA (from UniProt Q9HW96 1-416) (natural protein)
stoichiometry N [3]: 13 and 14

RcpA L414C (from UniProt Q9HW96 1-416) (natural protein)
RcpA-TadD particles relative to native levels [4]: 9%

RcpA S415C (from UniProt Q9HW96 1-416) (natural protein)
RcpA-TadD complex relative to native levels [4]: 10%
RcpA-TadD particles relative to native levels [4]: 14%

RcpA, native sequence, in the cysteine cross-linking assay (tag not stated) (from UniProt Q9HW96 1-416) (natural protein)
RcpA-TadD particles relative to native TadD [5]: 2%
